{"source": "paper PMC5519609", "biological_target": "C3b (human) (UniProt P01024)", "test": "SPR; Biacore T200; about 2488 RU of C3b immobilised by amine coupling on a CM5 chip; CFHR3 injected in duplicate at 10-300 ug/ml; 25 °C, 30 ul/min; 10 mM Hepes-buffered saline, 3 mM ENTA (so in the source), 0.05% surfactant p20; wild type: KD from rate constants, mutant: steady-state affinity fit", "data": [{"substance": "mutant recombinant CFHR3 Arg142Cys (rs61737525, c.424 C > T) (from UniProt Q02985 19-330) (natural protein)", "values": [{"measurement": "Kd", "result": 18, "unit": "µM"}]}, {"substance": "wild-type recombinant CFHR3 (complement factor H-related protein 3) (from UniProt Q02985 19-330) (natural protein)", "values": [{"measurement": "Kd", "result": 0.15, "unit": "µM"}, {"measurement": "koff", "result": 0.00128, "unit": "s⁻¹"}, {"measurement": "kon", "result": 8350, "unit": "M⁻¹ s⁻¹"}]}]}
